Measurements taken from US20240000957A1 (published 2024).

T1: Human EphA7 Fc fusion (Human, UniProt Q15375 28-555, limits assumed)
T1 construct: Bought Fc fusion; also called R&D Systems 6756-A7; not shown: Fc of the bought fusion
T1 sequence (looked up): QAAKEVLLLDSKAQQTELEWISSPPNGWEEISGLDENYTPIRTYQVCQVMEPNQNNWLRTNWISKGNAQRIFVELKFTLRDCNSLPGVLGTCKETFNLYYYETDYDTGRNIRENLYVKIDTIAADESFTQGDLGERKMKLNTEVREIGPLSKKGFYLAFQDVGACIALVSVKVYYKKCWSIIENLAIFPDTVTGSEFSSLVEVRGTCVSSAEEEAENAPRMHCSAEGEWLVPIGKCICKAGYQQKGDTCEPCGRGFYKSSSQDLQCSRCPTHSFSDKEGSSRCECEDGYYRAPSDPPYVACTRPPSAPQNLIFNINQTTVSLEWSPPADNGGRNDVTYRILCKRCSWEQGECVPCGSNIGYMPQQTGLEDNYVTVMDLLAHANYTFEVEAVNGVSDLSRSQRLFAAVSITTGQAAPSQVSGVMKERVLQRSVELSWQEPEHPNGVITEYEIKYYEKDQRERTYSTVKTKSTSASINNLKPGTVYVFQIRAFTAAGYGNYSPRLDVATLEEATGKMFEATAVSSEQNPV

T2: Human EphA3 Fc fusion (Human, UniProt P29320 21-541, limits assumed)
T2 construct: Bought Fc fusion; also called R&D Systems 6444-A3; not shown: Fc of the bought fusion
T2 sequence (looked up): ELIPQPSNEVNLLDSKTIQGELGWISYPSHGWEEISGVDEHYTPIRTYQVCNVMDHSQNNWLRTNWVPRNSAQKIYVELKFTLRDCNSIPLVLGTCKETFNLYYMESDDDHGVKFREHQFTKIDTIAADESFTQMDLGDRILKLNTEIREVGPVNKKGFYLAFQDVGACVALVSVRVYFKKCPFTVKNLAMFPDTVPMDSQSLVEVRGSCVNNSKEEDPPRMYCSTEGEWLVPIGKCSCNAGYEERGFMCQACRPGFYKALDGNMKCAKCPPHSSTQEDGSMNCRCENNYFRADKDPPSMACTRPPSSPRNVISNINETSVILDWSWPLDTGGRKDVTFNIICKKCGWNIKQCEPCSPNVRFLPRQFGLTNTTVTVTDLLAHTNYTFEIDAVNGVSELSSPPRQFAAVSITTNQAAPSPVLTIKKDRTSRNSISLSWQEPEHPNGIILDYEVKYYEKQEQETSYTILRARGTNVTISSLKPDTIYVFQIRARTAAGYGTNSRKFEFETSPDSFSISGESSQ

T3: Human EphA1 Fc fusion (Human, UniProt P21709 26-547)
T3 construct: Bought Fc fusion; also called Sino Biologics 15789-H02H; not shown: Fc of the bought fusion
T3 sequence (looked up): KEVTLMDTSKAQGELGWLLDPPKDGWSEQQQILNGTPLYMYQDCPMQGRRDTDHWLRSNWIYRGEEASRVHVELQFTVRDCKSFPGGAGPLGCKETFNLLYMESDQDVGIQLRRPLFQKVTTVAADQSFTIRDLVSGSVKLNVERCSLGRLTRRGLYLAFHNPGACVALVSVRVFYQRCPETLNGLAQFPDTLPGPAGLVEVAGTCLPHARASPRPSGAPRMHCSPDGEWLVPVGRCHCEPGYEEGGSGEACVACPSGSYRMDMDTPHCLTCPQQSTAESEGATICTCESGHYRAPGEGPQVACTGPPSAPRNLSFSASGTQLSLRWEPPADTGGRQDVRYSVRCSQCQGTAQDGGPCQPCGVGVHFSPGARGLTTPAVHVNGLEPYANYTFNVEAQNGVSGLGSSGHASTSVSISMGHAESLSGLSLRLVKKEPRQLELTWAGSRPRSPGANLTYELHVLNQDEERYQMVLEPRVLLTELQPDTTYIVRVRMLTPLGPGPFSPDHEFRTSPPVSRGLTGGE

T4: Human EphA6 Fc fusion (Human, UniProt Q9UF33 23-550, limits assumed)
T4 construct: Bought Fc fusion; also called R&D Systems 5606-A6; not shown: Fc of the bought fusion
T4 sequence (looked up): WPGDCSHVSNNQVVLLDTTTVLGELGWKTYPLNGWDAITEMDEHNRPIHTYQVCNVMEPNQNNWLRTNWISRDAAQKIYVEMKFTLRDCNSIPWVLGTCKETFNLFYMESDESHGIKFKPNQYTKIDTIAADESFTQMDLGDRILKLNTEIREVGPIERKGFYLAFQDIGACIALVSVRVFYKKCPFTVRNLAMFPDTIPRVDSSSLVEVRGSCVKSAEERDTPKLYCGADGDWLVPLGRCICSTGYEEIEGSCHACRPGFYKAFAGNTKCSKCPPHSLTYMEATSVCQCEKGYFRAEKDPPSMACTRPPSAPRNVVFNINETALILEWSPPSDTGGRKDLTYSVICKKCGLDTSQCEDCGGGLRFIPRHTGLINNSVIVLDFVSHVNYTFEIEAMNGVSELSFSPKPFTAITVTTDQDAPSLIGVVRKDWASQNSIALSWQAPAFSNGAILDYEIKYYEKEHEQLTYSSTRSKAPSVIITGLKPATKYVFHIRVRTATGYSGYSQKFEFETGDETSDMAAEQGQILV

T5: Human EphB4 Fc fusion (Human, UniProt P54760 16-539)
T5 construct: Bought Fc fusion; also called Sino Biologics 10235-H02H; not shown: Fc of the bought fusion
T5 sequence (looked up): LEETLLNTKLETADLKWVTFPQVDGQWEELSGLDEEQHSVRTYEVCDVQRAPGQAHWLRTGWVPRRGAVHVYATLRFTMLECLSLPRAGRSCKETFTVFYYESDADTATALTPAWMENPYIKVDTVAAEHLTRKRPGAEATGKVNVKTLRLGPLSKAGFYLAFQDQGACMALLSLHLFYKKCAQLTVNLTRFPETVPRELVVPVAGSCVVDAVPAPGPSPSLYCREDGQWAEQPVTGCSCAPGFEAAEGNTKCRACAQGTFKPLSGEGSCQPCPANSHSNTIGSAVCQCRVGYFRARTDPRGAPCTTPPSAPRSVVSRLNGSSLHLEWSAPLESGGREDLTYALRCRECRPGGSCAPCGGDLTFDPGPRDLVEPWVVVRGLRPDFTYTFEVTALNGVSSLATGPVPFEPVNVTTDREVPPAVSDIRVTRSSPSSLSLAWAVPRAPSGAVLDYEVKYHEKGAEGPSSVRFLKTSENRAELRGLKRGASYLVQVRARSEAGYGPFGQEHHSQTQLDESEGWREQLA

B1: BCY6033 (peptide)
peptide: AXDCPLVNPLCLHPGWTC
modifications: not fully specified; N-terminal (β-Ala)-Sar10 spacer precedes SEQ ID NO: 11; HArg (homoarginine) at residue 2 of SEQ ID NO: 11; three Cys cyclised on the TATA scaffold; ValCit-MMAE (MMAE-PABC-Cit-Val-glutarate) on the N-terminal amine
B2: BCY6082 (peptide)
peptide: AXDCPLVNPLCLHPGWTC
modifications: not fully specified; N-terminal (β-Ala)-Sar10 spacer precedes SEQ ID NO: 11; HArg (homoarginine) at residue 2 of SEQ ID NO: 11; three Cys cyclised on the TATA scaffold; DM1-SS(SO3H)- (DM1-SO3H-SPDB) on the N-terminal amine

Columns and labels:
Assay in all cases: SPR, Fc-tagged protein captured by anti-human IgG
Human EphA7 Fc fusion = molecular target: T1, Human EphA7 Fc fusion
Human EphA3 Fc fusion = molecular target: T2, Human EphA3 Fc fusion
Human EphA1 Fc fusion = molecular target: T3, Human EphA1 Fc fusion
Human EphA6 Fc fusion = molecular target: T4, Human EphA6 Fc fusion
Human EphB4 Fc fusion = molecular target: T5, Human EphB4 Fc fusion

| Binder | binding result (Human EphA7 Fc fusion) | binding result (Human EphA3 Fc fusion) | binding result (Human EphA1 Fc fusion) | binding result (Human EphA6 Fc fusion) | binding result (Human EphB4 Fc fusion) |
| --- | --- | --- | --- | --- | --- |
| B1 | no binding (tested: 20 µM) | no binding (tested: 5 µM) | no binding (tested: 5 µM) | no binding (tested: 20 µM) | no binding (tested: 20 µM) |
| B2 | no binding (tested: 20 µM) | no binding (tested: 5 µM) | no binding (tested: 5 µM) | no binding (tested: 20 µM) | no binding (tested: 20 µM) |
